“And” between values parts separate entries of the source, which are not always exact repeats. Equal entries are not always repeated.
What was measured:
[1] = target: T1, human HER2/ErbB2 on cells (human, UniProt P04626 23-1255); experiment: FACS on HER2-expressing cells
T1 construct: whole, on cells; also called hHER2/ErbB2; wild type HER2/ErbB

murine HVEM-Ig [2] = target: T2, murine HVEM-Ig (mouse, UniProt Q80WM9 39-210); experiment: ELISA, muHVEM-Ig coated at 2 ug/ml, HRP goat anti-human kappa; the number is C of the printed 4-P fit (A 0.036, B 0.816, D 1.534, R^2 0.997); Fab-Light is BIIB71F10-132 by paragraph 503
T2 construct: Expressed and purified in house
T2 sequence (looked up): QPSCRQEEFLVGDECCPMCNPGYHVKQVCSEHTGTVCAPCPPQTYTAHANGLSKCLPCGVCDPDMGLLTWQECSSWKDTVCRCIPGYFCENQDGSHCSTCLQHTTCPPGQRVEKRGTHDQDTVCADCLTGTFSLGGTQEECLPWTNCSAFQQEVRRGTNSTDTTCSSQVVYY
Experimental: (§1) Human and murine ErbB2-Fc were obtained from R&D Systems. Wells of 96-well plates were coated with 2 ug/ml or 0.2 ug/ml of human or murine HER2-Fc by incubation overnight at 4-8° C. with either of these six proteins (80 ul/well of a 0.2 or 2 ug/ml solution in PBS). Wells were emptied, filled completely with a solution of PBS with 1% BSA (blocking buffer) and incubated at room temperature for 1 hour. Wells were emptied, washed twice PBS containing 0.05% Tween 20 (PBST) and filled with the samples (80 ul/well of 3× dilution series of the standard and supernatants in blocking buffer) prepared in another 96-well plate. After a 2-hour incubation at room temperature, the wells were emptied, washed three times with PBST and filled with a solution of HRP-conjugated goat pAbs anti-human kappa chain (80 ul/well of a 2000-fold dilution in blocking buffer). After 1-hour incubation, the wells were emptied and filled with a solution of HRP substrate prepared freshly. The color was left to develop for 3 minutes and was stopped by addition of an equal volume of 1N H₂SO₄. Absorbance was measured at 450 nm using a Plate Reader (SpectraMax, Molecular Devices). The data was processed and graphs were created using SoftMax Pro software.
(§2) Human and murine HVEM-Ig were expressed and purified in house.

IGFR-Ig = target: T3, IGFR-Ig (UniProt P08069 31-932); experiment: ELISA on IGFR-Ig, dilutions of medium of transfected CHO cells; the linker version of the control fusion is not named on the sheet
T3 construct: not shown: Ig part not specified

human HER2-Fc = target: T4, human HER2-Fc (human, UniProt P04626 23-652); experiment: ELISA on coated HER2-Fc
T4 construct: Bought from R&D Systems: homodimeric fusion of the HER2 extracellular domain and human IgG1 Fc; also called human ErbB2-Fc; rhErbB2-Fc; not shown: Fc fragment of human IgG1
Experimental: as §1

[3] = target: Soluble human LTBR (shuLTBR) (human, UniProt P36941 31-227, limits assumed); experiment: SEC / light scattering
Experimental: Soluble human LTBR (shuLTBR) was prepared by limited proteolytic digestion of human LTBR-Ig and purified by chromatography on protein A Sepharose and Fractogel TMAE. […] Controls with each protein were also included. The samples were analyzed by SEC using a […] column (Phenomenex) in PBS with a Waters Alliance HPLC instrument.

human LTBR-mIgG fusion = target: T5, human LTBR-mIgG fusion; experiment: sandwich ELISA after incubation at 200 ng/ml in human serum (cold or 37°C overnight): HER2-Fc on the plate, human LTBR-mIgG, HRP anti-mouse IgG; the signal needs both bindings at once
T5 construct: kept apart from m25 (human Fc); not shown: exact end of the LTBR part
Experimental: An ELISA assay was developed to detect LIGHT-Ab fusions after incubation with human sera. Briefly, 200 ng/mL of LIGHT-Ab fusions were incubated overnight in human serum at 37° C. The serum was assayed in sandwich ELISA as follows. HER2-Fc was immobilized to a solid surface, and was used to capture the LIGHT-Ab fusions. The serum incubated fusion proteins were added to the solid surface. Detection was effected using a human LTBR-mIgG fusion to bind to the LIGHT moiety of the fusion. Horseradish peroxidase (HRP) labeled anti-mouse IgG was used to detect bound LIGHT-Ab fusions.

murine LTβR-Ig = target: T6, murine LTβR-Ig (mouse, UniProt P50284 31-223); experiment: ELISA, muLTBR-Ig coated at 2 ug/ml, HRP goat anti-human kappa; the number is C of the printed 4-P fit (A 0.093, B 0.898, D 1.613, R^2 0.995); Fab-Light is BIIB71F10-132 by paragraph 502
T6 construct: Expressed and purified in house; also called mLTbR; murine LTBR-Ig
T6 sequence (P50284 31-223): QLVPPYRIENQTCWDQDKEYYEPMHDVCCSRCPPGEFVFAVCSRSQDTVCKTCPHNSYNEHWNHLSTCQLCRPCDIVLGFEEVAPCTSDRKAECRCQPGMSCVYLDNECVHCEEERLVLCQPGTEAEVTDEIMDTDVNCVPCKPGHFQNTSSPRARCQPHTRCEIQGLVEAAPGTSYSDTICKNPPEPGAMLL
Experimental: as §1
Human and murine LTBR-Ig were expressed and purified in house.

human HVEM-Ig = target: T7, human HVEM-Ig (human, UniProt Q92956 39-202); experiment: FACS (HVEM column of Table 2; format not told there)
T7 construct: Expressed and purified in house; also called HVEM-Fc; Herpes virus entry mediator-Ig
T7 sequence (looked up): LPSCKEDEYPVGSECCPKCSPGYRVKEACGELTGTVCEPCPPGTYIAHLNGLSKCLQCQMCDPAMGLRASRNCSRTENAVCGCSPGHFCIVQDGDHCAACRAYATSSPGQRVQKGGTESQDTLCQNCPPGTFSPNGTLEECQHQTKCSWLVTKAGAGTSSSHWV

murine HVEM-Ig [4] = target: T2, murine HVEM-Ig; experiment: ELISA, muHVEM-Ig coated at 0.2 ug/ml, HRP goat anti-human kappa; the number is C of the printed 4-P fit (A 0.045, B 0.716, D 1.298, R^2 0.996); Fab-Light is BIIB71F10-132 by paragraph 503
Experimental: as §1, §2

B1: 71F10 Fab-hLIGHT fusion with the (G4S)4 linker (BIIB71F10-132) (other)
heavy: EVQLLESGGGLVQPGGSLRLSCAASGFTFSSYGMVWVRQAPGKGLEWVSSISSSGGLTWYADSVKGRFTISRDNSKNTLYLQMNSLRAEDTAVYYCASPPGIAVARDYWGQGTLVTVSSASTKGPSVFPLAPSSKSTSGGTAALGCLVKDYFPEPVTVSWNSGALTSGVHTFPAVLQSSGLYSLSSVVTVPSSSLGTQTYICNVNHKPSNTKVDKKVEPKSCDKGGGGSGGGGSGGGGSGGGGSNPAAHLTGANSSLTGSGGPLLWETQLGLAFLRGLSYHDGALVVTKAGYYYIYSKVQLGGVGCPLGLASTITHGLYKRTPRYPEELELLVSQQSPCGRATSSSRVWWDSSFLGGVVHLEAGEEVVVRVLDERLVRLRDGTRSYFGAFMV
light: DIQMTQSPSSLSASVGDRVTITCRASQGISNYLAWYQQKPGKVPKLLIYAASTLQSGVPSRFSGSGSGTDFTLTISSLQPEDVATYYCQKYNSALLTFGGGTKVEIKRTVAAPSVFIFPPSDEQLKSGTASVVCLLNNFYPREAKVQWKVDNALQSGNSQESVTEQDSKDSTYSLSSTLTLSKADYEKHKVYACEVTHQGLSSPVTKSFNRGEC
notes: Trimer of Fab-LIGHT units; also called 71F10 Fab-(G4S)4-LIGHT
Which EC50 [1] does the source give for B1 here?
Its EC50 is 0.5 nM.

What about the EC50 (murine HVEM-Ig [2]) of the same binder?
Its EC50 is 2.5 ng/mL.

Does B1 bind (IGFR-Ig)?
Result: no binding (tested: dilution 1.00 (undiluted medium))

What about the EC50 (human HER2-Fc) of the same binder?
Its EC50 is 0.05 nM.

And the “stoichiometry (shuLTBR for 1 Fab-Light trimer)” value [3]?
The value was 2 shuLTBR per trimer and 3 shuLTBR per trimer.

Does B1 bind (human LTBR-mIgG fusion)?
Result: binds

And the EC50 (murine LTβR-Ig)?
The EC50 was 3.57 ng/mL.

And the EC50 (human HVEM-Ig)?
The EC50 was 0.5 nM.

And the EC50 (murine HVEM-Ig [4])?
The EC50 was 26.3 ng/mL.
